41 sequences from the nanobody polyreactivity screen of Harvey et al. (2022) can be followed below.

This data set in a line: yeast display, Sf9 membrane polyspecificity reagent, FACS + sequencing; frameworks hold sequencing errors. In outline:
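Genes from sorted yeast were amplified by colony PCR, read by MiSeq 2 × 250 sequencing and filtered on CDR length. These cells carried a synthetic nanobody library in Saccharomyces cerevisiae BJ5465 and were sorted by FACS into low and high (top ~1%) gates on anti-HA and streptavidin fluorescence. Polyreactivity is labelled according to the gate of origin.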
Turning to “QVQLVESGGGLVQAGGSLSLSCSASGRTLYFYAMGWYRQAPGKERELVAAIRWRGGSTYYADSVKGRFTISRDNAKNTVYLQMNSLKPEDTAVYYCAADVPSGYDYWGQGTQVTVSS”, the “polyreactivity (PSR sort gate)” value is listed as “high polyreactivity”.

Turning to “QVQLVESGGGRVQAGGSLRLRCAASGRTFRYYAMVWYRQAPGKERELVAAISRTGGSTYYADSVKGRFTISRDNAKNNVYLQMNSLKPEDTAVYYCAARYAEYGSWGQGTQVTVSS”, the “polyreactivity (PSR sort gate)” value is on record as “high polyreactivity”.

In the case of “QVQLVESGGGLVQAGGSLRLSCAASGFTFRYYAMGWYRQEPGKERELVARISSGGSTNYADSVKGRFTISRDNAKNTVYLQMNSLKPEDTSVKYCAARLDHWLIYAYDYWGQGTQVTVSS”, the “polyreactivity (PSR sort gate)” value is “high polyreactivity”.

In the case of “QVQLVESGGGLVQAGGSLRLSCAASGRTFYNYAMGWYRQAPGKEREFVAAITFRTSSTYYADSVKGRFTISRDNAKNTVYLQMNSLKQEDTAVYYCNADRYWGYDYWGQGTQVTVSS”, the “polyreactivity (PSR sort gate)” value is “high polyreactivity”.

Consider “QVQLVESGGGLVQAGGSLRLSCAASGSIFDWNGMGWYRQAPGKERELVAAITWRGGRTYYADSVKGRFTISRDNAKNTVYLQMNSLKPEDTAVYYCAATRFFYSRYNYWGQGTQVTVSS”, for which the “polyreactivity (PSR sort gate)” value is “high polyreactivity”.

As to “QVQHVESGGGLVHPGGILRLSCAASGLTFGRNAMGWYRQAPGKERELVAAISRSGGRTSYADSVKGRLTISRDNAKNTVYLQMNSLKPEDTAVYYCAARSPIYRTTYDYWGQGTQVTVSS”, the “polyreactivity (PSR sort gate)” value is recorded as “high polyreactivity”.

Take “QVQLVESGGGLVQAGGSLRLSCAASGSIFAAYAMGWYRQAPGKERELVAVINSRGGITSYADSVKGRFTISRDNAKNTVYLQMNSLKPEDTAVYYCAARPWYSWRYDYWGQGTQVTVSS”: the “polyreactivity (PSR sort gate)” value is “high polyreactivity”.

Regarding “QVQLVESGGGLVQAGGSLRLSCAASGRTFFWYAMGWYRQAPGKERELVAAISSSTRTKYADSVKGRFTISRDNAKNTVYLQMNSLKPEDTAVYYCNAKGWVWPFPSYYPYDSWGQGTQVTVSS”, the “polyreactivity (PSR sort gate)” value is listed as “high polyreactivity”.

“QVQLVESGGGLVQAGGSLRLSCAASGRIFPTYAMGWYRQAPGKERELFAGITSGGRTNYADSVKGRFTISRDNAKNTVYLQMNSLKPEDTAVYYCAKRVWPRDQYGKRNPRMDYWGQGTQVTVSS”: the “polyreactivity (PSR sort gate)” value is reported as “high polyreactivity”.

For “QVQLVESGGGIVQAGGSLRVSCAASGRTYLRNAMGWSRQAPGKERELVASITSRGGRTYADSVKGRFTISRDNAKNTVYLQMNSLKPEDTAVYYCDARRQAGLRYDYWGQGTQVTVSS”, the “polyreactivity (PSR sort gate)” value is on record as “high polyreactivity”.

With “QVQLVESRGGLDQAGGSLRLSCAASGSIFGFYAMGWYRQAPGKERELVAAISSDGGSTYYADSVKGRFTISRDNAKNTVYLQMNSLKPEDTAVYYCAAAHGSIFDSTYYEYYYWGQGTQVTVSS”, the “polyreactivity (PSR sort gate)” value is “low polyreactivity”.

Consider “QVQLVESGGGLVQAGGSLRLSCAASVRIFGYNAMGWSRQAPGKERYLVAAITTSGGSTYYADSVKGRFTISRDNAKNTVYLQMNSLKPEDTAVYYCARDSLQVFYPYASDDYWGQGTQVTVSS”, for which the “polyreactivity (PSR sort gate)” value was “low polyreactivity”.

In the case of “QVQLVESGGGLVKAGGSLRLSCAASGSTFRRYAMGWYRLAPGKERELVAAITIGGSTYYADSVKGRFTISRDNAKNTVKLKMNSLKPEDTAVYSCNAGKTYLGDYWGQGTQVTVSS”, the “polyreactivity (PSR sort gate)” value is on record as “high polyreactivity”.

With “QVQLVESGGGLVQAGGSLRLSCAASGFIFAWNAMGWYRQAPGKERELVASISSGGGSTYYADSVKGRFTISRDNAKNTVYLQMNSLKPEDTAVYYCAASYAYLRGLHYYKYDSWGQGTQVTVSS”, the “polyreactivity (PSR sort gate)” value is given as “low polyreactivity”.

In the case of “QVQLVESGGGLVQAGGSLRLSCAASGFIFGGYAMGWYRQAPGKERELVAAITWSGGNTYYADSVKGRFTISRDNAKNTVYLQMNSLKPEDTAVYYCAADYWTKYGYWGQGTQVTVSS”, the “polyreactivity (PSR sort gate)” value was “low polyreactivity”.

For “QVQLVESGGGLVQAGGSLRLSCAASGSTFWSYAMGWYTQAPGKERELVAVITGSDGRTFYADSVKGRFTISRDNAKNTVYLQMNSLKPEDTAVYYCAADAVFRATRYDRSTSEDDYWGQGTQVTVSS”, the “polyreactivity (PSR sort gate)” value is recorded as “low polyreactivity”.

“QVQLVESGGGLVQAGGSLRLSCAASGRIFKYYAMGWYRQAPGKERELVAAITSGGSTYYADSVKGRFTISRDNAKNTVYLQMNSLKPEDTAVYYCNADGYLSYAFDYWGQGTQVTVSS”: the “polyreactivity (PSR sort gate)” value is “low polyreactivity”.

“QVQLVESGGGLVQAGGSLRLSCAASGSISTPYTMGWYRQAPGKERELVAAISWIGDTTSYADSVKGRFTISRDNAKNTVYLQMHSLKPEETAVYYCNAEHRGYDYWGQGTQVTVSS”: the “polyreactivity (PSR sort gate)” value is reported as “low polyreactivity”.

Consider “QVQLQESGRRPGAAGGSPRMSCAASGNIFWVAVMGRYRQAPGKERELGASIGFGCTTYYADSVKCRFTISRDNAKNTVYLQMISLKPEDTAVYYCAAPHYDWGELDYWGQGTQVPVSS”, for which the “polyreactivity (PSR sort gate)” value is “low polyreactivity”.

Take “QVQLVESGGGLVQAGGSLRLSCAASGITFPGNAMGWYRQAPGKERELVAGISDGDSTNYADSVKGRFTISRDNAKNTVYLQMNSLKPEDTAVYYCNAQGTTETSGGGFFRGMDYWGQGTQVTVSS”: the “polyreactivity (PSR sort gate)” value is “low polyreactivity”.

Regarding “QVQLVESGGGLVQAGGRLSLSCAASGSTFAYYAMGWYRQAPGKERELVAGITWTGGSTYYADSVKGRFTNSRDNAKNTVYLQMNSLKPEDTAVYYCAVTYPYGYEYDHWGQGTQVTVSS”, the “polyreactivity (PSR sort gate)” value is recorded as “low polyreactivity”.

For “QVQLVESAGGLVQEGGSLRLICAASGSIFEPYAMGWYRQAPGKERELVAAIRWSGGSTYYADSVKGRFTISRDNAKNTVYLQMNRLIPEDTAVYYCAKYFPAGYYYWGQGTQVTVSS”, the “polyreactivity (PSR sort gate)” value was “low polyreactivity”.

For “QVQLVESGGGLLHAGGSLRLSCAASGRTFDHYAMGWYRQAPGKERELVAAISSRGSSTYYADSVKGRFTISRDNAKNTVYLQMNSLKPEDTAVYYCAAKYIRDYTSNPRGYWGHGTQVTVSS”, the “polyreactivity (PSR sort gate)” value is listed as “high polyreactivity”.

With “QVHLVESGGGLVQAGGSLRLSCAASGFIFDPYGMGWYRQAPGKERELVAAISSRVGSTYYADSVKGRFTISRDNAKNTVYLQLNSLKPEDTAVYYCAADNDGVGYWVYEEMDYWGQGTQVTVSS”, the “polyreactivity (PSR sort gate)” value is reported as “low polyreactivity”.

With “QVQLVESGGGLVQAGGSLRLTCAASGRIFNTYAMGWYRQAPGKERELVAAITRSAGRTYYADSVKGRFTISRDNAKNTVYLQMNSLKPEDTAVYYCNAEGSSVLTGYCGYPPYWDTYDYWGQGTQVTLSS”, the “polyreactivity (PSR sort gate)” value is “low polyreactivity”.

Turning to “QVQLVESGGGLVQAGGILRLSCAASGFIFEYYAMGWYRQAPGKERELVAAINGGGGNTYYADSVKGRFTISRDNAKNTVYLQMNSLKPEDTAVYYCNAKRRKYRYDYWGQGTQVTVSS”, the “polyreactivity (PSR sort gate)” value is given as “high polyreactivity”.

With “QVQLVESGGGLLQAGGSLRLSCSASGRIFPSYAMGWYRQAPGKERELVAAISSSGGRTYYADSVKGRFTISRDNAKNTVYLQLNSLKPEDTAVYYCAARWVQYGVRYDFWGQGTQVTVSS”, the “polyreactivity (PSR sort gate)” value is “high polyreactivity”.

Turning to “KVQLVESGGGLVHAGGSLRLSCAASGRTLYTNAMGWYRQAPGTERELVAAITSGASTNYADSVKGRFTISRDNAKNTVYLQMNSLKPEDTAVYYCAARTDHLWNARRYDYWGQGTQVTVSS”, the “polyreactivity (PSR sort gate)” value is recorded as “low polyreactivity”.

For “QVQLVESGGGLVQAGGSLRLSCAASGGIFTLYVMGWYRQEPGKERELVAAISRTGGSTYYADSVKGRLTISRDNAKNTVYLQMNSLKPEDTAVYYCDAERGVDDSARYGDYDYWGQGTQVTVSS”, the “polyreactivity (PSR sort gate)” value is “low polyreactivity”.

With “QVQLVESGGGLVQAGGSLRLSCASSGFTLYANAMGWYRQAPGKERELVADISESGSSTSYADSVKGRFTISRDNAKNTVYLQMKSLKPEDTAVYYCYDYWVQGTQVTVSS”, the “polyreactivity (PSR sort gate)” value was “low polyreactivity”.

For the sequence “QVQLVESGGGLVQAGGSLRLSCAASGSIFGENAMGWYRQATGKERELVAAITWGGTSTYYADSVKGRYTISRDNAKNTVYLQMNSLKPEDTAVYYCNTPRYVRRQGVKRYDYWGQGTQVTVSS”, the “polyreactivity (PSR sort gate)” value is “low polyreactivity”.

Consider “QVQLVESGGGLVQAGGSLRLSCAASGNIFDVYAMGWYRQAPGKERELVAAISRSGSSTYYADSVKGRFTISRDNAKNTVYLQMNSLKQEDTAVYYCAAKISLGQRTYYYWGQGTQVTVSS”, for which the “polyreactivity (PSR sort gate)” value is “high polyreactivity”.

With “QVQLVESGGGLVQAGGSLRLSCAASGSTFFPYAMGWYRQAPGKERELVATINYSGGGTYYADSVKGRFTISRDNAKNTGYLQMNSLKPEDTAVYYCAKTLARFDRGYYWGQGTQVTVSS”, the “polyreactivity (PSR sort gate)” value was “low polyreactivity”.

For “QVHLVESGGGIVQAGGSLRLSCAASGFTFQYNAMGWYRQAPGKERELVAAISYSGTSTYYADSVKGRFTISRDNPKNTVSLQKNSLKPEETAVYYCAVPRLSGSPSAYGYYYWGQGTQVTVSS”, the “polyreactivity (PSR sort gate)” value is “high polyreactivity”.

For “QVQLVESGGGLVQAGGSLRLSCAASGRIFGHYAMGWYRQAPGKERELVASITDGTSTNYADSVKGRFTISRDNAKNTVYLQMNSLKPEDTADYYCAADDRLQFPRGDYCGQGTQVTVSS”, the “polyreactivity (PSR sort gate)” value is “low polyreactivity”.

Turning to “QVQLVESGGGLVQAGGSLRLSCAASGFTFYSYAMGWYRQAPGKERELVAAITRSGGSTRYADSVKGRFTISRDNAKNTVYLQMNSLKPEDTAVYYCAARFVRNYVYKYNYWGQGTQVTVSS”, the “polyreactivity (PSR sort gate)” value is “high polyreactivity”.

As to “QVQLVESGGGLVQAGGSLRLSCAASGSIFSRYAMGWYRQAPGKERELVAAITSSGGRTYYADSVKGRFTISRDNAKNTVYLQMNSLKPEDTAVYYCAADVRTPSEGYDYWGQGTQGTVSS”, the “polyreactivity (PSR sort gate)” value is given as “high polyreactivity”.

Consider “QVQLVESGRGLVQAGGSLRLSCAASGFIFRTYVMGWSRQATGKERELVAAITSSGGSTYYADSVKGRFTISRDTAKNTVYLQMNSLIPEDTAVYYCNAYPVYGRYTHYGYGHWGQGTQVTVSS”, for which the “polyreactivity (PSR sort gate)” value is given as “high polyreactivity”.

Consider “QVQLVESGGGLVQAGGSLRLSCAASGFIFYDYALGWYRQAPGKERELVAAITQRGGSTYYADSVKGRFPISRDNAKKTVYLQMTSLKPVDTAVYSCAAKDAPYWFPITHVQPVDMDYWGQGTQVTVSS”, for which the “polyreactivity (PSR sort gate)” value is “high polyreactivity”.

Turning to “QDQHVESGGGLVQAGGSLRLSCAASGRIFFHNAMGWSRQAPGKERELVAAIRSSTGSTYYADSVKGRFTISRDNAKNTVYLQMNSLKPEDTAVYYCARYAYANAYYGKSYWMGYWGQGTQVTVSS”, the “polyreactivity (PSR sort gate)” value is reported as “high polyreactivity”.

As for “QVQLVESGGGLVQAGGSLRLSCAASGRTFRYNAMGWYRQAPGKERELVAAISRGANTNYADSVKGRFTISRDNAKNTVYLQMNSLKPADTAVYYCAAVPGYRFYYWGQGTQVTVSS”, the “polyreactivity (PSR sort gate)” value was “high polyreactivity”.
